# Laboratory results as given in patent US20200123252A1 (LAMKAP BIO BETA, published 2020).
# B1: K2AC10 CEA×CD47 bispecific antibody (bispecific antibody, human IgG1, kappa, lambda)
# heavy: not shown
# light 1: QSVLTQPPSVSGAPGQRVTISCTGSSSNIYANSNVHWYQQLPGTAPKLLIYSGSNRPSGVPDRFSGSKSGTSASLAITGLQAEDEADYYCQSYDPAHNLLTAVFGGGTKLTVLGQPKAAPSVTLFPPSSEELQANKATLVCLISDFYPGAVTVAWKADSSPVKAGVETTTPSKQSNNKYAASSYLSLTPEQWKSHRSYSCQVTHEGSTVEKTVAPTECS
# light 2: not shown
# notes: κλ body, human IgG1, common heavy chain; CEACAM5 arm light chain 1D5 (AC10)
# B2: K2AC28 CEA×CD47 bispecific antibody (bispecific antibody, human IgG1, kappa, lambda)
# heavy: not shown
# light 1: NFMLTQPHSVSESPGKTVTISCTRSSGSINDITVHWYQQRPGSSPTTVIYGYNARPSGVPDRFSGSIDSSSNSASLTISGLKTEDEADYYCQSWDGHGSAYVFGGGTKLTVLGQPKAAPSVTLFPPSSEELQANKATLVCLISDFYPGAVTVAWKADSSPVKAGVETTTPSKQSNNKYAASSYLSLTPEQWKSHRSYSCQVTHEGSTVEKTVAPTECS
# light 2: not shown
# notes: κλ body, human IgG1, common heavy chain; CEACAM5 arm light chain C11 (AC28)
# B3: K2AC13 CEA×CD47 bispecific antibody (bispecific antibody, human IgG1, kappa, lambda)
# heavy: not shown
# light 1: QSALTQPASVSGSPGQSITISCTGTSSNVRYAAGVSWYQQHPGKAPKLMIYEVSNRPSGVSNRFSGSKSGNTASLTISGLQAEDEADYYCSSWDFEHGPAAKVFGGGTKLTVLGQPKAAPSVTLFPPSSEELQANKATLVCLISDFYPGAVTVAWKADSSPVKAGVETTTPSKQSNNKYAASSYLSLTPEQWKSHRSYSCQVTHEGSTVEKTVAPTECS
# light 2: not shown
# notes: κλ body, human IgG1, common heavy chain; CEACAM5 arm light chain 2B8 (AC13)
# B4: K2AC25 CEA×CD47 bispecific antibody (bispecific antibody, human IgG1, kappa, lambda)
# heavy: not shown
# light 1: QSVLTQPPSVSAAPGQKVTISCSGSSSNIGITPVSWYQQLPGTAPKLLIYSNNFRPSGIPDRFSGSKSGTSATLGITGLQTGDEADYYCGTWDRTGHEIRPVFGGGTKLTVLGQPKAAPSVTLFPPSSEELQANKATLVCLISDFYPGAVTVAWKADSSPVKAGVETTTPSKQSNNKYAASSYLSLTPEQWKSHRSYSCQVTHEGSTVEKTVAPTECS
# light 2: not shown
# notes: κλ body, human IgG1, common heavy chain; CEACAM5 arm light chain 2F4 (AC25)
# B5: K2AC18 CEA×CD47 bispecific antibody (bispecific antibody, human IgG1, kappa, lambda)
# heavy: not shown
# light 1: SYVLTQPPSVSVAPGKTARITCGGNGIGDASVHWYQQKPGQAPVLVIYSTTTRPSGIPERFSGSNSGNTATLTISRVEAGDEADYYCQVWDGFGPRHRAVFGGGTKLTVLGQPKAAPSVTLFPPSSEELQANKATLVCLISDFYPGAVTVAWKADSSPVKAGVETTTPSKQSNNKYAASSYLSLTPEQWKSHRSYSCQVTHEGSTVEKTVAPTECS
# light 2: not shown
# notes: κλ body, human IgG1, common heavy chain; CEACAM5 arm light chain 1A2 (AC18)
# B6: K2AC27 CEA×CD47 bispecific antibody (bispecific antibody, human IgG1, kappa, lambda)
# heavy: not shown
# light 1: QSVLTQPPSVSGAPGQRVTISCTGSSSNIGYADKVHWYQQLPGTAPKLLIYNNSDRPSGVPDRFSGSKSGTSASLAITGLQAEDEADYYCQSYDGYNMLTAVFGGGTKLTVLGQPKAAPSVTLFPPSSEELQANKATLVCLISDFYPGAVTVAWKADSSPVKAGVETTTPSKQSNNKYAASSYLSLTPEQWKSHRSYSCQVTHEGSTVEKTVAPTECS
# light 2: not shown
# notes: κλ body, human IgG1, common heavy chain; CEACAM5 arm light chain 2C11 (AC27)
# B7: K2AC26 CEA×CD47 bispecific antibody (bispecific antibody, human IgG1, kappa, lambda)
# heavy: not shown
# light 1: QSALTQPASVSGSPGQSITISCTGTSSDVKYANAVSWYQQHPGKAPKLMIYSNSIRPSGVSNRFSGSKSGNTASLTISGLQAEDEADYYCSSYDPRGNLLIRVFGGGTKLTVLGQPKAAPSVTLFPPSSEELQANKATLVCLISDFYPGAVTVAWKADSSPVKAGVETTTPSKQSNNKYAASSYLSLTPEQWKSHRSYSCQVTHEGSTVEKTVAPTECS
# light 2: not shown
# notes: κλ body, human IgG1, common heavy chain; CEACAM5 arm light chain 2F7 (AC26)
# B8: K2AC29 CEA×CD47 bispecific antibody (bispecific antibody, human IgG1, kappa, lambda)
# heavy: not shown
# light 1: QSALTQPASVSGSPGQSITISCTGTSSDVEFTNGVSWYQQHPGKAPKLMIYGFSSRPSGVSNRFSGSKSGNTASLTISGLQAEDEADYYCSSYDPPWHLLARVFGGGTKLTVLGQPKAAPSVTLFPPSSEELQANKATLVCLISDFYPGAVTVAWKADSSPVKAGVETTTPSKQSNNKYAASSYLSLTPEQWKSHRSYSCQVTHEGSTVEKTVAPTECS
# light 2: not shown
# notes: κλ body, human IgG1, common heavy chain; CEACAM5 arm light chain 2B5 (AC29)
# Biological target: T1, human CD47 on MKN45 cells (human, UniProt Q08722 19-323)
# T1 construct: whole, on cells; also called IAP
# Test: inhibition of SIRPα-mouseFc binding to CD47 on MKN45 cells, imaging (CX5)
# Text: The detection of bound SIRPα cell-based assay monitoring the interaction of soluble SIRPα with human CD47 expressed at the surface of MKN45 is used for the detection of the blocking activity. Dose-response experiments with bispecific antibodies according to the invention allow determination of an IC50 value.
# MKN45 cancer cells, expressing both CD47 and CEACAM5, are stained with CFSE violet to allow the imaging system (CX5) to detect the cells. Briefly, 3,000 stained MKN45 cells per well are seeded in a 384 optical well plate (Costar) and incubated for 50 minutes with increased concentrations of bispecific antibodies of the invention (1.9 pM to 333 nM, in quadruplicates). Then, a fixe concentration of SIRPα-mouseFc premixed with anti-mouse IgG-Fc AF647 coupled antibody (Jackson Immunoresearch diluted 1:2000) is added at 50 ng/mL final. After an incubation of 3H30 plates are acquired with the imaging system (CX5, Thermofisher) and fluorescence signals emitted by the detected bound SIRPα is recorded by the software dedicated to the imaging system. Fluorescence signals are plotted according to the dose range tested and IC50 are calculated by the software (Prism, Graphpad).
row,Binder,IC50 [nM]
1,B1,0.22
2,B2,0.95
3,B3,4
4,B4,0.22
5,B5,7
6,B6,0.86
7,B7,0.32
8,B8,0.72

# Biological target: T2, human CEACAM5 on MKN-45 cells (human, UniProt P06731 35-685)
# T2 construct: Endogenous CEACAM5 on MKN-45 gastric adenocarcinoma cells, which also carry CD47 (and CEACAM6); also called CD66e; MKN45 CEA+ cancer cells
# T2 sequence: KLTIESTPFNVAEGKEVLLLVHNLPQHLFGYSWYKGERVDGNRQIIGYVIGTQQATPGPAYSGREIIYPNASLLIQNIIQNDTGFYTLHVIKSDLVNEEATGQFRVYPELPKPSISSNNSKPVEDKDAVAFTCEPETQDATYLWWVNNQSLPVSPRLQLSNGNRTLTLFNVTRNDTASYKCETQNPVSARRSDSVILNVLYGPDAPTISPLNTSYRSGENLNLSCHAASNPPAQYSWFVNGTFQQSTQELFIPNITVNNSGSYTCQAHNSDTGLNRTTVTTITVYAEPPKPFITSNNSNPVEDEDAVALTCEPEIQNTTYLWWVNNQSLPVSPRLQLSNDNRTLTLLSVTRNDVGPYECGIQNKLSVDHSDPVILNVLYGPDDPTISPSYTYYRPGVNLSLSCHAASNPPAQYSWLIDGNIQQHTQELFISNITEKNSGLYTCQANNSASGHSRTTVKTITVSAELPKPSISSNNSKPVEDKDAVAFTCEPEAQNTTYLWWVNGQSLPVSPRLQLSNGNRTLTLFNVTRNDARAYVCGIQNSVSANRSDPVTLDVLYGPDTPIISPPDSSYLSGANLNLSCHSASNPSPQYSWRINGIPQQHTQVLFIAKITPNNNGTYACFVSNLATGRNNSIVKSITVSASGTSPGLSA
# Test: flow cytometry on MKN45 CEA+ cells (carry CEACAM5 and CD47)
row,Binder,EC50 [nM]
1,B1,1.15
2,B2,52.5
3,B3,190
4,B4,13
5,B5,132
6,B6,12.5
7,B7,12.7
8,B8,14.5
